Several values for one entry are separate records, joined by “and”; a condition that tells them apart may be missing. Equal values may be shown once.
Conditions: whole UniProt chain shown
[1] = Bos taurus, pH 6, Thermal, DSC, Sodium phosphate 50 mM, NaCl 200 mM, reversible: yes
[2] = Equus caballus, pH 4, 25 °C, GdnHCl, CD, Citrate 50 mM
[3] = Equus caballus, pH 4, 25 °C, GdnHCl, CD, Formate 50 mM
[4] = Equus caballus, pH 4, 25 °C, Urea, CD, Citrate 50 mM
[5] = Equus caballus, pH 4, 25 °C, Urea, CD, Formate 50 mM
[6] = Bos taurus, pH 7.2, Thermal, DSC, phosphate 20 mM, reversible: yes (partial)
[7] = Bos taurus, pH 7.4, Thermal, DSC, potassium phosphate 20 mM, reversible: Yes (65%)
[8] = Escherichia coli (strain K12), pH 7, Thermal, DSC, Potassium phosphate 50 mM, KCl 0.5 M, reversible: no
[9] = Bos taurus, pH 6.7, Thermal, DSC, phosphate 10 mM, MgCl2 0.5 mM, reversible: No
[10] = Bos taurus, pH 7, 25 °C, GdnHCl, CD, sodium cacodylate 50 mM, NaCl 50 mM
[11] = Bos taurus, pH 7, Thermal, CD, C2H6AsNaO2 50 mM, NaCl 50 mM
[12] = Bos taurus, pH 7.5, Thermal, DSC, Tris-HCl 10 mM, CaCl2 260 micro M
[13] = Bos taurus, pH 8, 25 °C, GdnHCl, CD, Tris-HCl 20 mM
[14] = Bos taurus, pH 8, 25 °C, Thermal, CD, borate 10 mM, NaCl 0.01-1.0 M
[15] = Bos taurus, pH 8, 25 °C, Thermal, DSC, Tris-HCl 10 mM, reversible: yes
[16] = Bos taurus, pH 8, Thermal, DSC, Tris-HCl 5 mM
[17] = Bos taurus, pH 8, Thermal, DSC, Tris-HCl 10mM, reversible: yes
[18] = Bos taurus, pH 8, Thermal, DSC, borate 10 mM, NaCl 0.2 M, reversible: yes (>95%)
[19] = Comamonas testosteroni, pH 7, 25 °C, Urea, Fluorescence, phosphate 25 mM, reversible: yes
[20] = Bos taurus, pH 7, Thermal, DSC, Potassium phosphate 67 mM, MgCl2 1 mM

B1: Ribonuclease pancreatic wild type, P61823 (protein)
chain: MALKSLVLLSLLVLVLLLVRVQPSLGKETAAAKFERQHMDSSTSAASSSNYCNQMMKSRNLTKDRCKPVNTFVHESLADVQAVCSQKNVACKNGQTNCYQSYSTMSITDCRETGSSKYPNCAYKTTQANKHIIVACEGNPYVPVHFDASV
- Tm [1]: 47.7 °C
- heat capacity change of unfolding [1]: 2 kcal/mol/K
- unfolding enthalpy (calorimetric) [1]: 107 kcal/mol

B2: Beta-lactoglobulin-1 wild type, P02758 (protein)
chain: MKCLLLALGLALMCGIQATNIPQTMQDLDLQEVAGKWHSVAMAASDISLLDSESAPLRVYIEKLRPTPEDNLEIILREGENKGCAEKKIFAEKTESPAEFKINYLDEDTVFALDTDYKNYLFLCMKNAATPGQSLVCQYLARTQMVDEEIMEKFRRALQPLPGRVQIVPDLTRMAERCRI
- denaturant m value [2]: 4.74 kcal/mol/M
- unfolding free energy [2]: 10.1 kcal/mol
- denaturant m value [3]: 1.54 kcal/mol/M
- unfolding free energy [3]: 3.92 kcal/mol
- denaturant m value [4]: 2.9 kcal/mol/M
- unfolding free energy [4]: 9.83 kcal/mol
- denaturant m value [5]: 0.74 kcal/mol/M
- unfolding free energy [5]: 2.9 kcal/mol

B3: NADP-dependent isopropanol dehydrogenase wild type, P25984 (protein)
chain: MKGFAMLGINKLGWIEKERPVAGSYDAIVRPLAVSPCTSDIHTVFEGALGDRKNMILGHEAVGEVVEVGSEVKDFKPGDRVIVPCTTPDWRSLEVQAGFQQHSNGMLAGWKFSNFKDGVFGEYFHVNDADMNLAILPKDMPLENAVMITDMMTTGFHGAELADIQMGSSVVVIGIGAVGLMGIAGAKLRGAGRIIGVGSRPICVEAAKFYGATDILNYKNGHIVDQVMKLTNGKGVDRVIMAGGGSETLSQAVSMVKPGGIISNINYHGSGDALLIPRVEWGCGMAHKTIKGGLCPGGRLRAEMLRDMVVYNRVDLSKLVTHVYHGFDHIEEALLLMKDKPKDLIKAVVIL
- Tm (Clostridium beijerinckii, pH 6.8, Thermal, CD, Na/K phosphate 50 mM): 65.1 °C

B4: Shikimate kinase 2 wild type, P10880 (protein)
chain: MTEPIFMVGARGCGKTTVGRELARALGYEFVDTDIFMQHTSGMTVADVVAAEGWPGFRRRESEALQAVATPNRVVATGGGMVLLEQNRQFMRAHGTVVYLFAPAEELALRLQASPQAHQRPTLTGRPIAEEMEAVLREREALYQDVAHYVVDATQPPAAIVCELMQTMRLPAA
- denaturant midpoint (higher = more stable) (Dickeya chrysanthemi, pH 7.6, 25 °C, Urea, Fluorescence, Tris-HCl 35 mM, KCl 5 mM): 2.1 M

B5: Chemotaxis protein CheY wild type, P0AE67 (protein)
chain: MADKELKFLVVDDFSTMRRIVRNLLKELGFNNVEEAEDGVDALNKLQAGGYGFVISDWNMPNMDGLELLKTIRADGAMSALPVLMVTAEAKKENIIAAAQAGASGYVVKPFTAATLEEKLNKIFEKLGM
- unfolding free energy (Escherichia coli (strain K12), pH 7, 25 °C, Urea, Fluorescence, Cacodylate 100 mM): 5.6 kcal/mol

B6: Inorganic pyrophosphatase wild type, P0A7A9 (protein)
chain: MSLLNVPAGKDLPEDIYVVIEIPANADPIKYEIDKESGALFVDRFMSTAMFYPCNYGYINHTLSLDGDPVDVLVPTPYPLQPGSVIRCRPVGVLKMTDEAGEDAKLVAVPHSKLSKEYDHIKDVNDLPELLKAQIAHFFEHYKDLEKGKWVKVEGWENAEAAKAEIVASFERAKNK
- Tm (Escherichia coli (strain K12), pH 7, Thermal, CD, HEPES 20 mM, MgCl2 5 mM): 84 °C
- Tm (Escherichia coli (strain K12), pH 7, Thermal, CD, HEPES 20 mM): 58 °C

B7: L-asparaginase 2 wild type, P00805 (protein)
chain: MEFFKKTALAALVMGFSGAALALPNITILATGGTIAGGGDSATKSNYTVGKVGVENLVNAVPQLKDIANVKGEQVVNIGSQDMNDNVWLTLAKKINTDCDKTDGFVITHGTDTMEETAYFLDLTVKCDKPVVMVGAMRPSTSMSADGPFNLYNAVVTAADKASANRGVLVVMNDTVLDGRDVTKTNTTDVATFKSVNYGPLGYIHNGKIDYQRTPARKHTSDTPFDVSKLNELPKVGIVYNYANASDLPAKALVDAGYDGIVSAGVGNGNLYKSVFDTLATAAKTGTAVVRSSRVPTGATTQDAEVDDAKYGFVASGTLNPQKARVLLQLALTQTKDPQQIQQIFNQY
- unfolding free energy (Escherichia coli (strain K12), pH 7.4, 25 °C, Urea, Fluorescence, Tris-HCl 50 mM): 11.5 kcal/mol

B8: Alpha-crystallin A chain wild type, P02470 (protein)
chain: MDIAIQHPWFKRTLGPFYPSRLFDQFFGEGLFEYDLLPFLSSTISPYYRQSLFRTVLDSGISEVRSDRDKFVIFLDVKHFSPEDLTVKVQEDFVEIHGKHNERQDDHGYISREFHRRYRLPSNVDQSALSCSLSADGMLTFSGPKIPSGVDAGHSERAIPVSREEKPSSAPSS
- unfolding free energy (Bos taurus, pH 5, 20 °C, Urea, Fluorescence, Sodium acetate 50 mM): 8.46 kcal/mol
- Tm [6]: 45.6 °C
- unfolding enthalpy (calorimetric) [6]: 98 kcal/mol
- unfolding enthalpy (van 't Hoff) [6]: 91 kcal/mol
- Tm [7]: 59.8 °C
- heat capacity change of unfolding [7]: 1.36 kcal/mol/K
- unfolding enthalpy (calorimetric) [7]: 80.3 kcal/mol
- unfolding enthalpy (van 't Hoff) [7]: 78.6 kcal/mol

B9: DNA-binding transcriptional dual regulator CRP wild type, P0ACJ8 (protein)
chain: MVLGKPQTDPTLEWFLSHCHIHKYPSKSTLIHQGEKAETLYYIVKGSVAVLIKDEEGKEMILSYLNQGDFIGELGLFEEGQERSAWVRAKTACEVAEISYKKFRQLIQVNPDILMRLSAQMARRLQVTSEKVGNLAFLDVTGRIAQTLLNLAKQPDAMTHPDGMQIKITRQEIGQIVGCSRETVGRILKMLEDQNLISAHGKTIVVYGTR
- Tm [8]: 66.4 °C
- heat capacity change of unfolding [8]: 0.42 kcal/mol/K
- unfolding enthalpy (calorimetric) [8]: 131 kcal/mol
- unfolding enthalpy (van 't Hoff) [8]: 231 kcal/mol
- unfolding free energy (Escherichia coli (strain K12), pH 7.9, 20 °C, GdnHCl, CD, Tris-HCl 50 mM, KCl 0.1 M, reversible: yes): 7.2 kcal/mol
- unfolding free energy (Escherichia coli (strain K12), pH 7.9, 20 °C, Thermal, CD, Tris-HCl 50 mM, KCl 100 mM, reversible: yes): 7.32 kcal/mol

B10: Protein GrpE wild type, P09372 (protein)
chain: MSSKEQKTPEGQAPEEIIMDQHEEIEAVEPEASAEQVDPRDEKVANLEAQLAEAQTRERDGILRVKAEMENLRRRTELDIEKAHKFALEKFINELLPVIDSLDRALEVADKANPDMSAMVEGIELTLKSMLDVVRKFGVEVIAETNVPLDPNVHQAIAMVESDDVAPGNVLGIMQKGYTLNGRTIRAAMVTVAKAKA
- Tm (Escherichia coli (strain K12), pH 7, Thermal, CD, potassium phosphate 25 mM, reversible: yes): 48 °C
- Tm (Escherichia coli (strain K12), pH 7, Thermal, DSC, potassium phosphate 25 mM, reversible: yes): 48 °C

B11: DNA-Binding protein G5P wild type, P69542 (protein)
chain: MIKVEIKPSQAQFTTRSGVSRQGKPYSLNEQLCYVDLGNEYPVLVKITLDEGQPAYAPGLYTVHLSSFKVGQFGSLMIDRLRLVPAK
- unfolding free energy (Enterobacteria phage fd, pH 7, 25 °C, GdnHCl, CD, MOPS 0.05 M, NaCl 0.1 M, reversible: yes): 16.3 kcal/mol

B12: Tubulin--tyrosine ligase wild type, P38584 (protein)
chain: MYTFVVRDENSSVYAEVSRLLLATGHWKRLRRDNPRFNLMLGERNRLPFGRLGHEPGLMQLVNYYRGADKLCRKASLVKLIKTSPELAESCTWFPESYVIYPTNLKTPVAPAQDGIHPPLHSSRTDEREFFLASYNRKKEEGEGNVWIAKSSAGAKGEGILISSDATELLDFIDNQGQVHVIQKYLERPLLLEPGHRKFDIRSWVLVDHQFNIYLYREGVLRTASEPYHMDNFQDKTCHLTNHCIQKEYSKNYGKYEEGNEMFFEAFNRYLTSALNITLESSILLQIKHIIRSCLMSVEPAISTKHLPYQSFQLFGFDFMVDEELKVWLIEVNGAPACAQKLYAELCQGIVDIAIASVFPPPDAEQQPPQPATFIKL
- Tm [9]: 54.8 °C
- unfolding enthalpy (calorimetric) [9]: 173 kcal/mol

B13: Malate dehydrogenase wild type, P80040 (protein)
chain: MRKKISIIGAGFVGSTTAHWLAAKELGDIVLLDFVEGVPQGKALDLYEASPIEGFDVRVTGTNNYADTANSDVIVVTSGAPRKPGMSREDLIKVNADITRACISQAAPLSPNAVIIMVNNPLDAMTYLAAEVSGFPKERVIGQAGVLDAARYRTFIAMEAGVSVEDVQAMLMGGHGDEMVPLPRFSTISGIPVSEFIAPDRLAQIVERTRKGGGEIVNLLKTGSAYYAPAAATAQMVEAVLKDKKRVMPVAAYLTGQYGLNDIYFGVPVILGAGGVEKILELPLNEEEMALLNASAKAVRATLDTLKSL
- Tm (Chloroflexus aurantiacus (strain ATCC 29366 / DSM 635 / J-10-fl), pH 7.5, Thermal, CD, potassium phosphate 10 mM, reversible: No): 67.8 °C

B14: Alpha-lactalbumin wild type, P00711 (protein)
chain: MMSFVSLLLVGILFHATQAEQLTKCEVFRELKDLKGYGGVSLPEWVCTTFHTSGYDTQAIVQNNDSTEYGLFQINNKIWCKDDQNPHSSNICNISCDKFLDDDLTDDIMCVKKILDKVGINYWLAHKALCSEKLDQWLCEKL
- denaturant m value [10]: 2.43 kcal/mol/M
- unfolding free energy [10]: 7.29 kcal/mol
- Tm [11]: 25 °C
- heat capacity change of unfolding [11]: 1.1 kcal/mol/K
- unfolding enthalpy (van 't Hoff) [11]: 38 kcal/mol
- Tm [12]: 64.2 °C
- unfolding enthalpy (calorimetric) [12]: 72.2 kcal/mol
- denaturant m value [13]: 0.84 kcal/mol/M
- denaturant midpoint (higher = more stable) [13]: 2.46 M
- unfolding free energy [13]: 2.07 kcal/mol
- heat capacity change of unfolding [14]: 1.18 kcal/mol/K
- unfolding enthalpy (van 't Hoff) [14]: 44.7 kcal/mol
- heat capacity change of unfolding [15]: 1.03 kcal/mol/K
- unfolding free energy [15]: 5.02 kcal/mol and 3.59 kcal/mol
- Tm [16]: 28.2 °C
- heat capacity change of unfolding [16]: 1.48 kcal/mol/K
- unfolding enthalpy (calorimetric) [16]: 35.2 kcal/mol
- Tm [17]: 55.2 °C
- unfolding enthalpy (calorimetric) [17]: 55 kcal/mol
- Tm [18]: 71.3 °C
- heat capacity change of unfolding [18]: 1.6 kcal/mol/K
- unfolding enthalpy (calorimetric) [18]: 80 kcal/mol
- unfolding enthalpy (van 't Hoff) [18]: 84 kcal/mol

B15: Steroid Delta-isomerase wild type, P00947 (protein)
chain: MNTPEHMTAVVQRYVAALNAGDLDGIVALFADDATVEDPVGSEPRSGTAAIREFYANSLKLPLAVELTQEVRAVANEAAFAFTVSFEYQGRKTVVAPIDHFRFNGAGKVVSMRALFGEKNIHAGA
- denaturant m value [19]: 4 kcal/mol/M
- unfolding free energy [19]: 22 kcal/mol

B16: Rhodopsin wild type, P02699 (protein)
chain: MNGTEGPNFYVPFSNKTGVVRSPFEAPQYYLAEPWQFSMLAAYMFLLIMLGFPINFLTLYVTVQHKKLRTPLNYILLNLAVADLFMVFGGFTTTLYTSLHGYFVFGPTGCNLEGFFATLGGEIALWSLVVLAIERYVVVCKPMSNFRFGENHAIMGVAFTWVMALACAAPPLVGWSRYIPEGMQCSCGIDYYTPHEETNNESFVIYMFVVHFIIPLIVIFFCYGQLVFTVKEAAAQQQESATTQKAEKEVTRMVIIMVIAFLICWLPYAGVAFYIFTHQGSDFGPIFMTIPAFFAKTSAVYNPVIYIMMNKQFRNCMVTTLCCGKNPLGDDEASTTVSKTETSQVAPA
- Tm [20]: 71.7 °C
- unfolding enthalpy (calorimetric) [20]: 172 kcal/mol

From FireProtDB
